Data on 3 substances can be found in patent publication US20250155429A1.

Assay [1] deals with CD8. Description: same staining; plot CD8 against CD4: upper right 0.30, lower left 11.12.
For assay [2], the target named is CD8. Description: same staining; plot CD8 against CD3, all events CD3-positive: upper left 0.00, lower left 0.00, lower right 71.27.
Assay [3] has as its target CD45. Description: flow cytometry of PBMCs, co-staining in the BSA series, 0% BSA; left quadrants 0.00 and 0.01. (In general: Flow cytometry measures light scatter and fluorescence of single cells or particles in a stream.)
Assay [4] addresses CD45. Description: flow cytometry of PBMCs, co-staining in the BSA series, 10% BSA; left quadrants 0.00 and 0.01.
In assay [5] the target is CD45. Description: flow cytometry of PBMCs, co-staining in the BSA series, 20% BSA; left quadrants 0.00 and 0.00.
Assay [6] deals with CD45. Description: flow cytometry of PBMCs stained with four mouse IgG1 primaries, each pre-labelled with an anti-mouse IgG1 linker; plot CD3 against CD45: upper left 0.03, lower left 0.14.
Assay [7] concerns the target CD45. Description: flow cytometry of PBMCs stained at once with mouse IgG1 anti-CD45 (linker-488, FITC), mouse IgG2a anti-CD3 (linker-555, PE), mouse IgG2b anti-CD4 (linker-647, APC); left plot: Q5 0, Q8 0.21.
Assay [8] has as its target CD3 (Homo sapiens (Human)) (UniProt P07766). Description: flow cytometry of PBMCs, FSC-H against APC-A, No Quencher; Q4 100.0.

Take CD8 (65144-1-Ig) (antibody): the % of cells, upper left quadrant (CD8-positive, CD4-negative) in assay [1] came to 28.4%. In addition, the % of cells, upper right quadrant (CD3+/CD8+) in assay [2] came to 28.7%.

With CD45 (65109-1-Ig) (antibody), in assay [3], the % of cells, lower right quadrant (CD45-positive, CD3-negative) came out at 47% and the % of cells, upper right quadrant (CD45-positive, CD3-positive) came out at 52.9%. Further, in assay [4], the % of cells, lower right quadrant (CD45-positive, CD3-negative) amounted to 46.1% and the % of cells, upper right quadrant (CD45-positive, CD3-positive) was found to be 53.9%. In assay [5], this substance had a % of cells, lower right quadrant (CD45-positive, CD3-negative) of 45.7% and a % of cells, upper right quadrant (CD45-positive, CD3-positive) of 54.3%. In assay [6], the % of cells, lower right quadrant (CD45-positive, CD3-negative) came to 28.5% and the % of cells, upper right quadrant (CD3+/CD45+) was 71.4%. In assay [7], this substance showed a Q6 (% of cells, FITC-positive and PE-positive) of 55.4%; a Q7 (% of cells, FITC-positive and PE-negative) of 44.4%.

With mouse IgG1 isotype control (antibody), in assay [8], the Q3 (% of cells, APC-positive) is 0.025%.
